These results are taken from paper PMC10709384, “Structure of the complete Saccharomyces cerevisiae Rpd3S-nucleosome complex” (Nature Communications, 2023).

The series deals with the molecule itself. Briefly: cryo-EM structure; nucleosome (0.9 µM) and Rpd3S (1.8 µM) mixed on ice for 1 h in 50 mM NaCl, 20 mM Na-HEPES pH 7.4, 1 mM TCEP, 4% glycerol; Superose 6 Increase 3.2/300; mild glutaraldehyde cross-linking; single-particle cryo-EM, overall 2.8 Å (Ume1 only at more than 8 Å).

B1: Rco1 (natural protein, S. cerevisiae)
chain: MDTSKKDTTRSPSHSNSSSPSSSSLSSSSSKEKKRPKRLSSQNVNYDLKRRKIITSEGIERSFKNEHSNLAVEDNIPEEEPKELLEKDSKGNIIKLNEPSTISEDSKVSVTGLPLNKGPSEKIKRESLWNYRKNLGGQSNNSEMTLVPSKRFTQVPKNFQDLNRNDLKTFLTENMTEESNIRSTIGWNGDIINRTRDREPESDRDNKKLSNIRTKIILSTNATYDSKSKLFGQNSIKSTSNASEKIFRDKNNSTIDFENEDFCSACNQSGSFLCCDTCPKSFHFLCLDPPIDPNNLPKGDWHCNECKFKIFINNSMATLKKIESNFIKQNNNVKIFAKLLFNIDSHNPKQFQLPNYIKETFPAVKTGSRGQYSDENDKIPLTDRQLFNTSYGQSITKLDSYNPDTHIDSNSGKFLICYKCNQTRLGSWSHPENSRLIMTCDYCQTPWHLDCVPRASFKNLGSKWKCPLHSPTKVYKKIHHCQEDNSVNYKVWKKQRLINKKNQLYYEPLQKIGYQNNGNIQIIPTTSHTDYDFNQDFKITQIDENSIKYDFFDKIYKSKMVQKRKLFQFQESLIDKLVSNGSQNGNSEDNMVKDIASLIYFQVSNNDKSSNNKSASKSNNLRKLWDLKELTNVVVPNELDSIQFNDFSSDEIKHLLYLKKIIESKPKEELLKFLNIENPENQSE
notes: Rco1, S. cerevisiae, amplified from genomic DNA of strain BJ5464; cloned into a 438-A vector with no tag; Two copies (Rco1A in the core module, Rco1B in the auxiliary module) stand in the Rpd3S complex; also called Rco1A; Rco1B
B1: the binding result is given as “binds”.
